Values joined by “and” are separate entries in the source; they are usually repeats but may differ in a detail not shown here. Equal entries are not always repeated. Where two headings read alike, the source gives them in different places.
Experiments:
Assay in all cases: cell-based or functional assay
[1] = biological target: HA of A/Fort Monmouth/1/47 (H1N1) (influenza A virus)
[2] = biological target: HA of A/New Jersey/8/76 (H1N1) (influenza A virus)
[3] = biological target: HA of A/Kawasaki/9/86 (H1N1) (influenza A virus)
[4] = biological target: HA of ca A/Texas/36/91 (H1N1) (influenza A virus)
[5] = biological target: HA of ca A/Beijing/262/95 (H1N1) (influenza A virus)
[6] = biological target: HA of ca A/New Caledonia/20/99 (H1N1) (influenza A virus)
[7] = biological target: HA of ca A/swine/Missouri/06 (H2N3) (influenza A virus)
[8] = biological target: HA of ca A/Vietnam/1203/04 (H5N1) (influenza A virus)
[9] = biological target: HA of ca A/Hong Kong/213/03 (H5N1) (influenza A virus)
[10] = biological target: HA of ca A/teal/Hong Kong/W312/97 (H6N1) (influenza A virus)
[11] = biological target: T1, HA of ca A/chicken/Hong Kong/G9/97 (H9N2) (influenza A virus)
[12] = biological target: HA of A/Hong Kong/8/68 (H3N2) (influenza A virus)
[13] = biological target: HA of A/Victoria/3/75 (H3N2) (influenza A virus)
[14] = biological target: HA of ca A/Sydney/5/97 (H3N2) (influenza A virus)
[15] = biological target: HA of ca A/Panama/2007/99 (H3N2) (influenza A virus)
[16] = biological target: HA of A/Wyoming/03/03 (H3N2) (influenza A virus)
[17] = biological target: HA of A/Wisconsin/67/05 (H3N2) (influenza A virus)
[18] = biological target: HA of ca A/Perth/16/09 (H3N2) (influenza A virus)
[19] = biological target: HA of ca A/Netherlands/219/03 (H7N7) (influenza A virus)
[20] = biological target: T2, HA of ca A/Brit. Columbia/CN-6/04 (H7N3-LP) (influenza A virus)
[21] = biological target: HA of A/Fort Monmouth/1/47 (H1N1) (influenza A virus); remark: listed apart in the source
[22] = biological target: HA of A/New Jersey/8/76 (H1N1) (influenza A virus); remark: listed apart in the source
[23] = biological target: HA of A/Kawasaki/9/86 (H1N1) (influenza A virus); remark: listed apart in the source
[24] = biological target: HA of ca A/Texas/36/91 (H1N1) (influenza A virus); remark: listed apart in the source
[25] = biological target: HA of ca A/Beijing/262/95 (H1N1) (influenza A virus); remark: listed apart in the source
[26] = biological target: HA of ca A/New Caledonia/20/99 (H1N1) (influenza A virus); remark: listed apart in the source
HA of virus H1-BS10 = biological target: HA of virus H1-BS10
[27] = biological target: HA of ca A/Japan/57 (H2N2) (influenza A virus)
[28] = biological target: HA of ca A/swine/Missouri/06 (H2N3) (influenza A virus); remark: listed apart in the source
[29] = biological target: HA of ca A/Vietnam/1203/04 (H5N1) (influenza A virus); remark: listed apart in the source
[30] = biological target: HA of ca A/Hong Kong/213/03 (H5N1) (influenza A virus); remark: listed apart in the source
[31] = biological target: HA of ca A/mallard/Alberta/89/85 (H6N2) (influenza A virus)
[32] = biological target: HA of ca A/teal/Hong Kong/W312/97 (H6N1) (influenza A virus); remark: listed apart in the source
[33] = biological target: T1, HA of ca A/chicken/Hong Kong/G9/97 …; remark: listed apart in the source
[34] = biological target: HA of A/Hong Kong/8/68 (H3N2) (influenza A virus); remark: listed apart in the source
[35] = biological target: HA of A/Victoria/3/75 (H3N2) (influenza A virus); remark: listed apart in the source
[36] = biological target: HA of ca A/Sydney/5/97 (H3N2) (influenza A virus); remark: listed apart in the source
[37] = biological target: HA of ca A/Perth/16/09 (H3N2) (influenza A virus); remark: listed apart in the source
[38] = biological target: HA of A/Victoria/361/11 (H3N2) (influenza A virus)
[39] = biological target: HA of ca A/Netherlands/219/03 (H7N7) (influenza A virus); remark: listed apart in the source
[40] = biological target: T2, HA of ca A/Brit. Columbia/CN-6/04 …; remark: listed apart in the source
[41] = biological target: HA of ca A/Anhui/1/13 (H7N9) (influenza A virus)
[42] = biological target: HA of swine-origin A/Minnesota/11/2010 H3N2 virus (influenza A virus)
[43] = biological target: HA of ca A/Panama/2007/99 (H3N2) (influenza A virus); remark: listed apart in the source
[44] = biological target: HA of A/Wisconsin/67/05 (H3N2) (influenza A virus); remark: listed apart in the source

B1: Antibody 6 (antibody, V domains shown)
VH: QVQLQQSGPGLVKPSQTLSLTCAISGDRVSSNSAVWNWIRQSPSRGLEWLGRTYYRSKWYYDYAESVKSRIVIDPDTSKNQVSLQLNSVTPEDSAIYYCARGGHITEFGLNIDAYDIWGQGAMVTVSS
VL: DIQMTQSPSSLSASVGDRVTISCRAQSLSSYLHWYQQKPGQPPKLLIYAATTLQSGVPSRFSGSGSGTDFTLTISTFQAEDVATYYCQQSRTFGQGTKVEIK
- Neutralization IC50, H1-FM47 [1]: 3.04 µg/mL
- Neutralization IC50, H1-NJ76 [2]: 2.6 µg/mL
- Neutralization IC50, H1-Kaw86 [3]: 3.51 µg/mL
- Neutralization IC50, H1-TX91 [4]: 2.2 µg/mL
- Neutralization IC50, H1-BJ95 [5]: 20.9 µg/mL
- Neutralization IC50, H1-Ncal99 [6]: 3 µg/mL
- Neutralization IC50, H2-MO06 [7]: 2.9 µg/mL
- Neutralization IC50, H5-VM04 [8]: 8.87 µg/mL
- Neutralization IC50, H5-HK03 [9]: 10.4 µg/mL
- Neutralization IC50, H6-HK97 [10]: 3.23 µg/mL
- Neutralization IC50, H9-HK97 [11]: 16.5 µg/mL
- Neutralization IC50, H3-HK68 [12]: 2.04 µg/mL
- Neutralization IC50, H3-Vic75 [13]: 1.09 µg/mL
- Neutralization IC50, H3-Syd97 [14]: 6.54 µg/mL
- Neutralization IC50, H3-Pa99 [15]: 25.8 µg/mL
- Neutralization IC50, H3-Wy03 [16]: 4.7 µg/mL
- Neutralization IC50, H3-WI05 [17]: 6.76 µg/mL
- Neutralization IC50, H3-Perth09 [18]: 5.03 µg/mL
- Neutralization IC50, H7-NLD03 [19]: > 50 µg/mL
- Neutralization IC50, H7-BC04 [20]: > 50 µg/mL

B2: Antibody 8 (antibody, V domains shown)
VH: QVQLQQSGPGLVKPSQTLSLTCVISGDTVSSNRATWNWMRQSPLRGLEWLGRTYYRSKWYNDYAVSVKSRVVINPDTSKNQVSLQLNTVTPDDSGVYFCARGGHITVFGVNIDAFDIWGLGTKVTVSS
VL: DIQMTQSPSSLSASVGDRVTISCRASQRLNSYLHWYQQTPGQAPKLLIYATSTLQSGVSPRFSGSGSGTDFTLTISSLQPEDVATYYCQLSRTFGHGTKVEIK
- Neutralization IC50, H1-FM47 [1]: 1.37 µg/mL
- Neutralization IC50, H1-NJ76 [2]: 2.26 µg/mL
- Neutralization IC50, H1-Kaw86 [3]: 2.11 µg/mL
- Neutralization IC50, H1-TX91 [4]: 0.7 µg/mL
- Neutralization IC50, H1-BJ95 [5]: 10.6 µg/mL
- Neutralization IC50, H1-Ncal99 [6]: 2.06 µg/mL
- Neutralization IC50, H2-MO06 [7]: 2.62 µg/mL
- Neutralization IC50, H5-VM04 [8]: 3.9 µg/mL
- Neutralization IC50, H5-HK03 [9]: 1.82 µg/mL
- Neutralization IC50, H6-HK97 [10]: 2.97 µg/mL
- Neutralization IC50, H9-HK97 [11]: 26.4 µg/mL
- Neutralization IC50, H3-HK68 [12]: 2.82 µg/mL
- Neutralization IC50, H3-Vic75 [13]: 3.83 µg/mL
- Neutralization IC50, H3-Syd97 [14]: > 50 µg/mL
- Neutralization IC50, H3-Pa99 [15]: > 50 µg/mL
- Neutralization IC50, H3-Wy03 [16]: > 50 µg/mL
- Neutralization IC50, H3-WI05 [17]: > 50 µg/mL
- Neutralization IC50, H3-Perth09 [18]: > 50 µg/mL
- Neutralization IC50, H7-NLD03 [19]: 12.8 µg/mL
- Neutralization IC50, H7-BC04 [20]: 14.7 µg/mL

B3: Antibody 12 (antibody, V domains shown)
VH: QVQLQQSGPGLVKPSQTLSLTCAISGDSVSSYNAVWNWIRQSPSRGLEWLGRTYYRSGWYNDYAESVKSRITINPDTSKNQFSLQLNSVTPEDTAVYYCARSGHITVFGVNVDAFDMWGQGTMVTVSS
VL: DIQMTQSPSSLSASVGDRVTITCRTSQSLSSYTHWYQQKPGKAPKLLIYAASSRGSGVPSRFSGSGSGTDFTLTISSLQPEDFATYYCQQSRTFGQGTKVEIK
- Neutralization IC50, H1-FM47 [21]: 0.28 µg/mL
- Neutralization IC50, H1-NJ76 [22]: 0.12 µg/mL
- Neutralization IC50, H1-Kaw86 [23]: 0.28 µg/mL
- Neutralization IC50, H1-TX91 [24]: 0.12 µg/mL
- Neutralization IC50, H1-BJ95 [25]: 1.31 µg/mL
- Neutralization IC50, H1-Ncal99 [26]: 0.61 µg/mL
- Neutralization IC50, H1-BS10 (HA of virus H1-BS10): 1.25 µg/mL
- Neutralization IC50, H2-JP57 [27]: 0.35 µg/mL
- Neutralization IC50, H2-MO06 [28]: 0.53 µg/mL
- Neutralization IC50, H5-VM04 [29]: 0.31 µg/mL
- Neutralization IC50, H5-HK03 [30]: 0.17 µg/mL
- Neutralization IC50, H6-AB85 [31]: 0.32 µg/mL
- Neutralization IC50, H6-HK97 [32]: 0.45 µg/mL
- Neutralization IC50, H9-HK97 [33]: 0.31 µg/mL
- Neutralization IC50, H3-HK68 [34]: 0.42 µg/mL
- Neutralization IC50, H3-Vic75 [35]: 0.32 µg/mL
- Neutralization IC50, H3-Syd97 [36]: 1.56 µg/mL
- Neutralization IC50, H3-Perth09 [37]: 0.25 µg/mL
- Neutralization IC50, H3-VC11 [38]: 0.83 µg/mL
- Neutralization IC50, H7-NLD03 [39]: 0.83 µg/mL
- Neutralization IC50, H7-BC04 [40]: 0.78 µg/mL
- Neutralization IC50, H7-ANU13 [41]: 2.56 µg/mL
- Neutralizing activity IC50, swine-origin A/Minnesota/11/2010 [42]: 1.1 µg/mL and 1.2 µg/mL

B4: Antibody 14 (antibody, V domains shown)
VH: QVQLQQSGPGLVKPSQTLSLTCAISGDSVSSNNAVWNWIRQSPSRGLEWLGRTYYRSKWYNDYAESVKSRITINPDTSKNQFSLQLNSVTPEDTAVYYCARSGHITVFGVNVDAFDMWGQGTTVTVSS
VL: DIQMTQSPSSLSASVGDRVTITCRTSQSLSSYTHWYQQKPGKAPKLLIYAASSRLSGVPSRFSGSGSGTDFTLTISSLQPEDFATYYCQQSRTFGQGTKVEIK
- Neutralization IC50, H1-FM47 [21]: 0.44 µg/mL
- Neutralization IC50, H1-NJ76 [22]: 0.11 µg/mL
- Neutralization IC50, H1-Kaw86 [23]: 0.35 µg/mL
- Neutralization IC50, H1-TX91 [24]: 0.09 µg/mL
- Neutralization IC50, H1-BJ95 [25]: 2.09 µg/mL
- Neutralization IC50, H1-Ncal99 [26]: 0.67 µg/mL
- Neutralization IC50, H1-BS10 (HA of virus H1-BS10): 1.93 µg/mL
- Neutralization IC50, H2-JP57 [27]: 0.67 µg/mL
- Neutralization IC50, H2-MO06 [28]: 0.65 µg/mL
- Neutralization IC50, H5-VM04 [29]: 0.33 µg/mL
- Neutralization IC50, H5-HK03 [30]: 0.21 µg/mL
- Neutralization IC50, H6-AB85 [31]: 0.26 µg/mL
- Neutralization IC50, H6-HK97 [32]: 0.26 µg/mL
- Neutralization IC50, H9-HK97 [33]: 0.44 µg/mL
- Neutralization IC50, H3-HK68 [34]: 0.65 µg/mL
- Neutralization IC50, H3-Vic75 [35]: 0.44 µg/mL
- Neutralization IC50, H3-Syd97 [36]: 1.82 µg/mL
- Neutralization IC50, H3-Pa99 [43]: 4.36 µg/mL
- Neutralization IC50, H3-WI05 [44]: 1.19 µg/mL
- Neutralization IC50, H3-Perth09 [37]: 0.47 µg/mL
- Neutralization IC50, H3-VC11 [38]: 1.15 µg/mL
- Neutralization IC50, H7-NLD03 [39]: 1.16 µg/mL
- Neutralization IC50, H7-BC04 [40]: 0.86 µg/mL
- Neutralization IC50, H7-ANU13 [41]: 2.12 µg/mL
- Neutralizing activity IC50, swine-origin A/Minnesota/11/2010 [42]: 1.4 µg/mL and 2.3 µg/mL

From patent US20160257732A1 (published 2016)
